Here are results for six molecules from US20140087995A1 (published 2014).

The target in the test is T1, human calcitonin receptor (human, UniProt P30988 25-474).
T1 sequence (looked up): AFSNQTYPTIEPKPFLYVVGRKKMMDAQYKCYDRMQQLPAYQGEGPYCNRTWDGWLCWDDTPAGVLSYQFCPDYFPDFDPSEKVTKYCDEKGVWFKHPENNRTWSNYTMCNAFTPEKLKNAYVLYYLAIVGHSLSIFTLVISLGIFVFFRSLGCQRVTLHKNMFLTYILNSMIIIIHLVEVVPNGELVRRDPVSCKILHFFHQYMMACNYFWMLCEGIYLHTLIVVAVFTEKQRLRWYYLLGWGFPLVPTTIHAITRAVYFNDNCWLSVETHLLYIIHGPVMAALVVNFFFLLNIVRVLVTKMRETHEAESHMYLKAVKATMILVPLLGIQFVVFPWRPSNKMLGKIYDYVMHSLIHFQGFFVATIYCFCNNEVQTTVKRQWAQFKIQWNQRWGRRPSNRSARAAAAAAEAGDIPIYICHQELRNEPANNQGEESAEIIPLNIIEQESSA
Put plainly: cell-based or functional assay.

Numbered stars: 1 amine (or outer) side, 2 acyl side, 3 side chain; on linkers, the order of the positions; unused ones are H or OH. Bridge positions count the residues as written; N and C are the ends. Side chains are listed from the residue outwards. Ends that are not written are not given here. * marks the point of attachment. C20 diacid = O=C(O)CCCCCCCCCCCCCCCCCCC(=O)*; γGlu = O=C(O)[C@H](CCC(=O)[*:2])N[*:1]; AEEA = NCCOCCOCC(=O)O

B1: N^ε1-[2-[2-[2-[[(4S)-4-carboxy-4-(19-carboxynonadecanoylamino)butanoyl]amino]ethoxy]ethoxy]acetyl]-[Arg17,Pro21,Pro27]-h-amylin (peptide)
peptide: K([AEEA-γGlu-C20 diacid])CNTATCATQRLANFLRHSSPNFGAIPSSTNVGSNTY-NH2
modifications: disulfide 2-7; N-terminus assumed
SMILES: CC[C@H](C)[C@H](NC(=O)[C@H](C)NC(=O)CNC(=O)[C@H](Cc1ccccc1)NC(=O)[C@H](CC(N)=O)NC(=O)[C@@H]1CCCN1C(=O)[C@H](CO)NC(=O)[C@H](CO)NC(=O)[C@H](Cc1c[nH]cn1)NC(=O)[C@H](CCCNC(=N)N)NC(=O)[C@H](CC(C)C)NC(=O)[C@H](Cc1ccccc1)NC(=O)[C@H](CC(N)=O)NC(=O)[C@H](C)NC(=O)[C@H](CC(C)C)NC(=O)[C@H](CCCNC(=N)N)NC(=O)[C@H](CCC(N)=O)NC(=O)[C@@H](NC(=O)[C@H](C)NC(=O)[C@@H]1CSSC[C@H](NC(=O)[C@@H](N)CCCCNC(=O)COCCOCCNC(=O)CC[C@H](NC(=O)CCCCCCCCCCCCCCCCCCC(=O)O)C(=O)O)C(=O)N[C@@H](CC(N)=O)C(=O)N[C@@H]([C@@H](C)O)C(=O)N[C@@H](C)C(=O)N[C@@H]([C@@H](C)O)C(=O)N1)[C@@H](C)O)C(=O)N1CCC[C@H]1C(=O)N[C@@H](CO)C(=O)N[C@@H](CO)C(=O)N[C@H](C(=O)N[C@@H](CC(N)=O)C(=O)N[C@H](C(=O)NCC(=O)N[C@@H](CO)C(=O)N[C@@H](CC(N)=O)C(=O)N[C@H](C(=O)N[C@@H](Cc1ccc(O)cc1)C(N)=O)[C@@H](C)O)C(C)C)[C@@H](C)O
notes: analogue of human amylin; also called compound 41
As for B1, the “hCTR funct. EC50” value is 4.35 nM.

B2: N^ε-[(4S)-4-carboxy-4-(19-carboxynonadecanoylamino)butanoyl]Lys[Arg1,Arg17,Pro21,Pro27,His35]-h-amylin (peptide)
peptide: K([γGlu-C20 diacid])RCNTATCATQRLANFLRHSSPNFGAIPSSTNVGSHTY-NH2
modifications: disulfide 3-8; N-terminus assumed
SMILES: CC[C@H](C)[C@H](NC(=O)[C@H](C)NC(=O)CNC(=O)[C@H](Cc1ccccc1)NC(=O)[C@H](CC(N)=O)NC(=O)[C@@H]1CCCN1C(=O)[C@H](CO)NC(=O)[C@H](CO)NC(=O)[C@H](Cc1c[nH]cn1)NC(=O)[C@H](CCCNC(=N)N)NC(=O)[C@H](CC(C)C)NC(=O)[C@H](Cc1ccccc1)NC(=O)[C@H](CC(N)=O)NC(=O)[C@H](C)NC(=O)[C@H](CC(C)C)NC(=O)[C@H](CCCNC(=N)N)NC(=O)[C@H](CCC(N)=O)NC(=O)[C@@H](NC(=O)[C@H](C)NC(=O)[C@@H]1CSSC[C@H](NC(=O)[C@H](CCCNC(=N)N)NC(=O)[C@@H](N)CCCCNC(=O)CC[C@H](NC(=O)CCCCCCCCCCCCCCCCCCC(=O)O)C(=O)O)C(=O)N[C@@H](CC(N)=O)C(=O)N[C@@H]([C@@H](C)O)C(=O)N[C@@H](C)C(=O)N[C@@H]([C@@H](C)O)C(=O)N1)[C@@H](C)O)C(=O)N1CCC[C@H]1C(=O)N[C@@H](CO)C(=O)N[C@@H](CO)C(=O)N[C@H](C(=O)N[C@@H](CC(N)=O)C(=O)N[C@H](C(=O)NCC(=O)N[C@@H](CO)C(=O)N[C@@H](Cc1c[nH]cn1)C(=O)N[C@H](C(=O)N[C@@H](Cc1ccc(O)cc1)C(N)=O)[C@@H](C)O)C(C)C)[C@@H](C)O
notes: analogue of human amylin, extended by Lys at the N-terminus; also called compound 44
Regarding B2, the “hCTR funct. EC50” value was 4.75 nM.

B3: N^-1-[(4S)-4-carboxy-4-(19-carboxynonadecanoylamino)butanoyl]-Gly[Arg1,Arg17,Pro21,Pro27]-h-amylin (peptide)
peptide: {C20 diacid-γGlu}-GRCNTATCATQRLANFLRHSSPNFGAIPSSTNVGSNTY-NH2
modifications: disulfide 3-8
SMILES: CC[C@H](C)[C@H](NC(=O)[C@H](C)NC(=O)CNC(=O)[C@H](Cc1ccccc1)NC(=O)[C@H](CC(N)=O)NC(=O)[C@@H]1CCCN1C(=O)[C@H](CO)NC(=O)[C@H](CO)NC(=O)[C@H](Cc1c[nH]cn1)NC(=O)[C@H](CCCNC(=N)N)NC(=O)[C@H](CC(C)C)NC(=O)[C@H](Cc1ccccc1)NC(=O)[C@H](CC(N)=O)NC(=O)[C@H](C)NC(=O)[C@H](CC(C)C)NC(=O)[C@H](CCCNC(=N)N)NC(=O)[C@H](CCC(N)=O)NC(=O)[C@@H](NC(=O)[C@H](C)NC(=O)[C@@H]1CSSC[C@H](NC(=O)[C@H](CCCNC(=N)N)NC(=O)CNC(=O)CC[C@H](NC(=O)CCCCCCCCCCCCCCCCCCC(=O)O)C(=O)O)C(=O)N[C@@H](CC(N)=O)C(=O)N[C@@H]([C@@H](C)O)C(=O)N[C@@H](C)C(=O)N[C@@H]([C@@H](C)O)C(=O)N1)[C@@H](C)O)C(=O)N1CCC[C@H]1C(=O)N[C@@H](CO)C(=O)N[C@@H](CO)C(=O)N[C@H](C(=O)N[C@@H](CC(N)=O)C(=O)N[C@H](C(=O)NCC(=O)N[C@@H](CO)C(=O)N[C@@H](CC(N)=O)C(=O)N[C@H](C(=O)N[C@@H](Cc1ccc(O)cc1)C(N)=O)[C@@H](C)O)C(C)C)[C@@H](C)O
notes: analogue of human amylin, extended by Gly at the N-terminus; also called compound 46
For the molecule B3, the “hCTR funct. EC50” value is 0.899 nM.

B4: N^ε1-[(4S)-4-carboxy-4-[[(4S)-4-carboxy-4-(19-carboxynonadecanoylamino)butanoyl]amino]butanoyl]-[Asp14,Arg17,Pro21,Pro26,Asp35]-h-amylin (peptide)
peptide: K([γGlu-γGlu-C20 diacid])CNTATCATQRLADFLRHSSPNFGAPLSSTNVGSDTY-NH2
modifications: disulfide 2-7; N-terminus assumed
SMILES: CC(C)C[C@H](NC(=O)[C@H](CCCNC(=N)N)NC(=O)[C@H](CCC(N)=O)NC(=O)[C@@H](NC(=O)[C@H](C)NC(=O)[C@@H]1CSSC[C@H](NC(=O)[C@@H](N)CCCCNC(=O)CC[C@H](NC(=O)CC[C@H](NC(=O)CCCCCCCCCCCCCCCCCCC(=O)O)C(=O)O)C(=O)O)C(=O)N[C@@H](CC(N)=O)C(=O)N[C@@H]([C@@H](C)O)C(=O)N[C@@H](C)C(=O)N[C@@H]([C@@H](C)O)C(=O)N1)[C@@H](C)O)C(=O)N[C@@H](C)C(=O)N[C@@H](CC(=O)O)C(=O)N[C@@H](Cc1ccccc1)C(=O)N[C@@H](CC(C)C)C(=O)N[C@@H](CCCNC(=N)N)C(=O)N[C@@H](Cc1c[nH]cn1)C(=O)N[C@@H](CO)C(=O)N[C@@H](CO)C(=O)N1CCC[C@H]1C(=O)N[C@@H](CC(N)=O)C(=O)N[C@@H](Cc1ccccc1)C(=O)NCC(=O)N[C@@H](C)C(=O)N1CCC[C@H]1C(=O)N[C@@H](CC(C)C)C(=O)N[C@@H](CO)C(=O)N[C@@H](CO)C(=O)N[C@H](C(=O)N[C@@H](CC(N)=O)C(=O)N[C@H](C(=O)NCC(=O)N[C@@H](CO)C(=O)N[C@@H](CC(=O)O)C(=O)N[C@H](C(=O)N[C@@H](Cc1ccc(O)cc1)C(N)=O)[C@@H](C)O)C(C)C)[C@@H](C)O
notes: analogue of human amylin; also called compound 1
On to B4, for which the “Ratio hCT/hAmylin funct.” value was found to be 12 and the “hCTR funct. EC50” value was determined as 2.7 nM.

B5: N^ε1-[(4S)-4-carboxy-4-[[(4S)-4-carboxy-4-(19-carboxynonadecanoylamino)butanoyl]amino]butanoyl]-[Asp14,Arg17,Pro21,Pro27,Arg35]-h-amylin (peptide)
peptide: K([γGlu-γGlu-C20 diacid])CNTATCATQRLADFLRHSSPNFGAIPSSTNVGSRTY-NH2
modifications: disulfide 2-7; N-terminus assumed
SMILES: CC[C@H](C)[C@H](NC(=O)[C@H](C)NC(=O)CNC(=O)[C@H](Cc1ccccc1)NC(=O)[C@H](CC(N)=O)NC(=O)[C@@H]1CCCN1C(=O)[C@H](CO)NC(=O)[C@H](CO)NC(=O)[C@H](Cc1c[nH]cn1)NC(=O)[C@H](CCCNC(=N)N)NC(=O)[C@H](CC(C)C)NC(=O)[C@H](Cc1ccccc1)NC(=O)[C@H](CC(=O)O)NC(=O)[C@H](C)NC(=O)[C@H](CC(C)C)NC(=O)[C@H](CCCNC(=N)N)NC(=O)[C@H](CCC(N)=O)NC(=O)[C@@H](NC(=O)[C@H](C)NC(=O)[C@@H]1CSSC[C@H](NC(=O)[C@@H](N)CCCCNC(=O)CC[C@H](NC(=O)CC[C@H](NC(=O)CCCCCCCCCCCCCCCCCCC(=O)O)C(=O)O)C(=O)O)C(=O)N[C@@H](CC(N)=O)C(=O)N[C@@H]([C@@H](C)O)C(=O)N[C@@H](C)C(=O)N[C@@H]([C@@H](C)O)C(=O)N1)[C@@H](C)O)C(=O)N1CCC[C@H]1C(=O)N[C@@H](CO)C(=O)N[C@@H](CO)C(=O)N[C@H](C(=O)N[C@@H](CC(N)=O)C(=O)N[C@H](C(=O)NCC(=O)N[C@@H](CO)C(=O)N[C@@H](CCCNC(=N)N)C(=O)N[C@H](C(=O)N[C@@H](Cc1ccc(O)cc1)C(N)=O)[C@@H](C)O)C(C)C)[C@@H](C)O
notes: analogue of human amylin; also called compound 52
Consider B5, for which the “hCTR funct. EC50” value was 14.1 nM.

B6: N^ε1-[(4S)-4-carboxy-4-[[(4S)-4-carboxy-4-(19-carboxynonadecanoylamino)butanoyl]amino]butanoyl]-[Asp14,Arg17,Pro21,Pro27,Asp35]-h-amylin (peptide)
peptide: K([γGlu-γGlu-C20 diacid])CNTATCATQRLADFLRHSSPNFGAIPSSTNVGSDTY-NH2
modifications: disulfide 2-7; N-terminus assumed
SMILES: CC[C@H](C)[C@H](NC(=O)[C@H](C)NC(=O)CNC(=O)[C@H](Cc1ccccc1)NC(=O)[C@H](CC(N)=O)NC(=O)[C@@H]1CCCN1C(=O)[C@H](CO)NC(=O)[C@H](CO)NC(=O)[C@H](Cc1c[nH]cn1)NC(=O)[C@H](CCCNC(=N)N)NC(=O)[C@H](CC(C)C)NC(=O)[C@H](Cc1ccccc1)NC(=O)[C@H](CC(=O)O)NC(=O)[C@H](C)NC(=O)[C@H](CC(C)C)NC(=O)[C@H](CCCNC(=N)N)NC(=O)[C@H](CCC(N)=O)NC(=O)[C@@H](NC(=O)[C@H](C)NC(=O)[C@@H]1CSSC[C@H](NC(=O)[C@@H](N)CCCCNC(=O)CC[C@H](NC(=O)CC[C@H](NC(=O)CCCCCCCCCCCCCCCCCCC(=O)O)C(=O)O)C(=O)O)C(=O)N[C@@H](CC(N)=O)C(=O)N[C@@H]([C@@H](C)O)C(=O)N[C@@H](C)C(=O)N[C@@H]([C@@H](C)O)C(=O)N1)[C@@H](C)O)C(=O)N1CCC[C@H]1C(=O)N[C@@H](CO)C(=O)N[C@@H](CO)C(=O)N[C@H](C(=O)N[C@@H](CC(N)=O)C(=O)N[C@H](C(=O)NCC(=O)N[C@@H](CO)C(=O)N[C@@H](CC(=O)O)C(=O)N[C@H](C(=O)N[C@@H](Cc1ccc(O)cc1)C(N)=O)[C@@H](C)O)C(C)C)[C@@H](C)O
notes: analogue of human amylin; also called compound 2
On to B6, for which the “hCTR funct. EC50” value came out at 3 nM.
